US20220056125A1 (CEPHALON, published 2022)

T1: human PAR-2 (human, UniProt P55085 26-397)
T1 sequence: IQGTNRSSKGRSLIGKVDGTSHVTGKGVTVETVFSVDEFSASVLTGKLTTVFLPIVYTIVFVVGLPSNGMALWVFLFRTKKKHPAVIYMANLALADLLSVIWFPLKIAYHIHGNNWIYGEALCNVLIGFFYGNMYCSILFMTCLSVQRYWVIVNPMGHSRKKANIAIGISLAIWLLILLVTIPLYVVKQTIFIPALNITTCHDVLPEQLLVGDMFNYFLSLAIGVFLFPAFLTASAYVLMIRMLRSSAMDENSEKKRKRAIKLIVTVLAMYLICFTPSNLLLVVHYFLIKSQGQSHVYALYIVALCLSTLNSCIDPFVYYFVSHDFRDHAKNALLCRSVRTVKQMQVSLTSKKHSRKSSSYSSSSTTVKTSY

B1: P24E281 (antibody, human IgG4 S228P, kappa, V domains shown)
VH: QVQLVQSGAEVKKPGSSVKVSCKASGFSLSSYGVIWVRQAPGQGLEWMGVIWGNGNTYYAQKFQGRVTITADESTSTAYMELSSLRSEDTAVYYCARWRGYKDYPFDYWGQGTLVTVSS
VL: EIVLTQSPATLSLSPGERATLSCKASQNIYKYLDWYQQKPGQAPRLLIYNANSLATGIPARFSGSGSGRDFTLTISSLEPEDFAVYYCLQHNSGWTFGGGTKVEIKR
B2: P24E286 (antibody, human IgG4 S228P, kappa, V domains shown)
VH: QVQLVQSGAEVKKPGSSVKVSCKASGFSLNSYAVIWVRQAPGQGLEWMGVIWGNGNTYYAQKFQGRVTITADESTSTAYMELSSLRSEDTAVYYCARWRGYKDYPFDYWGQGTLVTVSS
VL: EIVLTQSPATLSLSPGERATLSCKASQNIYKYLDWYQQKPGQAPRLLIYNANSLATGIPARFSGSGSGRDFTLTISSLEPEDFAVYYCLQHNSGWTFGGGTKVEIKR
B3: P24E283 (antibody, human IgG4 S228P, kappa, V domains shown)
VH: QVQLVQSGAEVKKPGSSVKVSCKASGFSLNSYAVIWVRQAPGQGLEWMGVIWGNGNTYYAQKFQGRVTITADESTSTAYMELSSLRSEDTAVYYCARWRGYKDYPFDYWGQGTLVTVSS
VL: EIVLTQSPATLSLSPGERATLSCKASQNIYKYLDWYQQKPGQAPRLLIYNTNSLATGIPARFSGSGSGRDFTLTISSLEPEDFAVYYCLQHNSGWTFGGGTKVEIKR
B4: P24E290 (antibody, human IgG4 S228P, kappa, V domains shown)
VH: QVQLVQSGAEVKKPGSSVKVSCKASGFSLNSYGIIWVRQAPGQGLEWMGVIWGNGNTYYAQKFQGRVTITADESTSTAYMELSSLRSEDTAVYYCARWRGYKDYPFDYWGQGTLVTVSS
VL: EIVLTQSPATLSLSPGERATLSCKASQNVYKYLDWYQQKPGQAPRLLIYNTNSLATGIPARFSGSGSGRDFTLTISSLEPEDFAVYYCLQHNSGWTFGGGTKVEIKR
B5: P24E295 (antibody, human IgG4 S228P, kappa, V domains shown)
VH: QVQLVQSGAEVKKPGSSVKVSCKASGFSLNSYAISWVRQAPGQGLEWMGVIWGNGNTYYAQKFQGRVTITADESTSTAYMELSSLRSEDTAVYYCARWRGYKDYPFDYWGQGTLVTVSS
VL: EIVLTQSPATLSLSPGERATLSCKASQNVYKYLDWYQQKPGQAPRLLIYNTNSLATGIPARFSGSGSGRDFTLTISSLEPEDFAVYYCLQHNSGWTFGGGTKVEIKR
B6: P24E284 (antibody, human IgG4 S228P, kappa, V domains shown)
VH: QVQLVQSGAEVKKPGSSVKVSCKASGFSLNSYAVIWVRQAPGQGLEWMGVIWGNGNTYYAQKFQGRVTITADESTSTAYMELSSLRSEDTAVYYCARWRGYKDYPFDYWGQGTLVTVSS
VL: EIVLTQSPATLSLSPGERATLSCRASQNIYKYLDWYQQKPGQAPRLLIYNTNSLATGIPARFSGSGSGRDFTLTISSLEPEDFAVYYCLQHNSGWTFGGGTKVEIKR
B7: P24E287 (antibody, human IgG4 S228P, kappa, V domains shown)
VH: QVQLVQSGAEVKKPGSSVKVSCKASGFSLNSYAVIWVRQAPGQGLEWMGVIWGNGNTYYAQKFQGRVTITADESTSTAYMELSSLRSEDTAVYYCARWRGYKDYPFDYWGQGTLVTVSS
VL: EIVLTQSPATLSLSPGERATLSCKASQNIYKYLDWYQQKPGQAPRLLIYNTNSRATGIPARFSGSGSGRDFTLTISSLEPEDFAVYYCLQHNSGWTFGGGTKVEIKR
B8: P24E282 (antibody, human IgG4 S228P, kappa, V domains shown)
VH: QVQLVQSGAEVKKPGSSVKVSCKASGFSLSSYGVIWVRQAPGQGLEWMGVIWGNGNTYYAQKFQGRVTITADESTSTAYMELSSLRSEDTAVYYCARWRGYKDYPFDYWGQGTLVTVSS
VL: EIVLTQSPATLSLSPGERATLSCKASQNIYKYLDWYQQKPGQAPRLLIYNTNSRATGIPARFSGSGSGRDFTLTISSLEPEDFAVYYCLQHNSGWTFGGGTKVEIKR
B9: P24E293 (antibody, human IgG4 S228P, kappa, V domains shown)
VH: QVQLVQSGAEVKKPGSSVKVSCKASGFSLNSYAISWVRQAPGQGLEWMGVIWGNGNTYYAQKFQGRVTITADESTSTAYMELSSLRSEDTAVYYCARWRGYKDYPFDYWGQGTLVTVSS
VL: EIVLTQSPATLSLSPGERATLSCKASQNIYKYLDWYQQKPGQAPRLLIYNTNSLATGIPARFSGSGSGRDFTLTISSLEPEDFAVYYCLQHNSGWTFGGGTKVEIKR
B10: P24E291 (antibody, human IgG4 S228P, kappa, V domains shown)
VH: QVQLVQSGAEVKKPGSSVKVSCKASGFSLNSYGIIWVRQAPGQGLEWMGVIWGNGNTYYAQKFQGRVTITADESTSTAYMELSSLRSEDTAVYYCARWRGYKDYPFDYWGQGTLVTVSS
VL: EIVLTQSPATLSLSPGERATLSCKASQNIYKYLDWYQQKPGQAPRLLIYNANSLATGIPARFSGSGSGRDFTLTISSLEPEDFAVYYCLQHNSGWTFGGGTKVEIKR
B11: P24E298 (antibody, human IgG4 S228P, kappa, V domains shown)
VH: QVQLVQSGAEVKKPGSSVKVSCKASGFSLSSYAISWVRQAPGQGLEWMGVIWGNGNTYYAQKFQGRVTITADESTSTAYMELSSLRSEDTAVYYCARWRGYKDYPFDYWGQGTLVTVSS
VL: EIVLTQSPATLSLSPGERATLSCKASQNIYKWLDWYQQKPGQAPRLLIYNTNSLATGIPARFSGSGSGRDFTLTISSLEPEDFAVYYCLQHNSGWTFGGGTKVEIKR
B12: P24E285 (antibody, human IgG4 S228P, kappa, V domains shown)
VH: QVQLVQSGAEVKKPGSSVKVSCKASGFSLNSYAVIWVRQAPGQGLEWMGVIWGNGNTYYAQKFQGRVTITADESTSTAYMELSSLRSEDTAVYYCARWRGYKDYPFDYWGQGTLVTVSS
VL: EIVLTQSPATLSLSPGERATLSCKASQNVYKYLDWYQQKPGQAPRLLIYNTNSLATGIPARFSGSGSGRDFTLTISSLEPEDFAVYYCLQHNSGWTFGGGTKVEIKR
B13: P24E297 (antibody, human IgG4 S228P, kappa, V domains shown)
VH: QVQLVQSGAEVKKPGSSVKVSCKASGFSLNSYAISWVRQAPGQGLEWMGVIWGNGNTYYAQKFQGRVTITADESTSTAYMELSSLRSEDTAVYYCARWRGYKDYPFDYWGQGTLVTVSS
VL: EIVLTQSPATLSLSPGERATLSCKASQNIYKYLDWYQQKPGQAPRLLIYNTNSRATGIPARFSGSGSGRDFTLTISSLEPEDFAVYYCLQHNSGWTFGGGTKVEIKR
B14: P24E289 (antibody, human IgG4 S228P, kappa, V domains shown)
VH: QVQLVQSGAEVKKPGSSVKVSCKASGFSLNSYGIIWVRQAPGQGLEWMGVIWGNGNTYYAQKFQGRVTITADESTSTAYMELSSLRSEDTAVYYCARWRGYKDYPFDYWGQGTLVTVSS
VL: EIVLTQSPATLSLSPGERATLSCRASQNIYKYLDWYQQKPGQAPRLLIYNTNSLATGIPARFSGSGSGRDFTLTISSLEPEDFAVYYCLQHNSGWTFGGGTKVEIKR
B15: P24E294 (antibody, human IgG4 S228P, kappa, V domains shown)
VH: QVQLVQSGAEVKKPGSSVKVSCKASGFSLNSYAISWVRQAPGQGLEWMGVIWGNGNTYYAQKFQGRVTITADESTSTAYMELSSLRSEDTAVYYCARWRGYKDYPFDYWGQGTLVTVSS
VL: EIVLTQSPATLSLSPGERATLSCRASQNIYKYLDWYQQKPGQAPRLLIYNTNSLATGIPARFSGSGSGRDFTLTISSLEPEDFAVYYCLQHNSGWTFGGGTKVEIKR
B16: P24E292 (antibody, human IgG4 S228P, kappa, V domains shown)
VH: QVQLVQSGAEVKKPGSSVKVSCKASGFSLNSYGIIWVRQAPGQGLEWMGVIWGNGNTYYAQKFQGRVTITADESTSTAYMELSSLRSEDTAVYYCARWRGYKDYPFDYWGQGTLVTVSS
VL: EIVLTQSPATLSLSPGERATLSCKASQNIYKYLDWYQQKPGQAPRLLIYNTNSRATGIPARFSGSGSGRDFTLTISSLEPEDFAVYYCLQHNSGWTFGGGTKVEIKR
B17: P24E296 (antibody, human IgG4 S228P, kappa, V domains shown)
VH: QVQLVQSGAEVKKPGSSVKVSCKASGFSLNSYAISWVRQAPGQGLEWMGVIWGNGNTYYAQKFQGRVTITADESTSTAYMELSSLRSEDTAVYYCARWRGYKDYPFDYWGQGTLVTVSS
VL: EIVLTQSPATLSLSPGERATLSCKASQNIYKYLDWYQQKPGQAPRLLIYNANSLATGIPARFSGSGSGRDFTLTISSLEPEDFAVYYCLQHNSGWTFGGGTKVEIKR
B18: P24E301 (antibody, human IgG4 S228P, kappa, V domains shown)
VH: QVQLVQSGAEVKKPGSSVKVSCKASGFSLSSYAISWVRQAPGQGLEWMGVIWGNGNTYYAQKFQGRVTITADESTSTAYMELSSLRSEDTAVYYCARWKGYKDYPFDYWGQGTLVTVSS
VL: EIVLTQSPATLSLSPGERATLSCKASQNIYKWLDWYQQKPGQAPRLLIYNTNSLATGIPARFSGSGSGRDFTLTISSLEPEDFAVYYCLQHNSGWTFGGGTKVEIKR
B19: P24E300 (antibody, human IgG4 S228P, kappa, V domains shown)
VH: QVQLVQSGAEVKKPGSSVKVSCKASGFSLSSYAISWVRQAPGQGLEWMGVIWGNGNTYYAQKFQGRVTITADESTSTAYMELSSLRSEDTAVYYCARWRGWKDYPFDYWGQGTLVTVSS
VL: EIVLTQSPATLSLSPGERATLSCKASQNIYKWLDWYQQKPGQAPRLLIYNTNSLATGIPARFSGSGSGRDFTLTISSLEPEDFAVYYCLQHNSGWTFGGGTKVEIKR
B20: P24E288 (antibody, human IgG4 S228P, kappa, V domains shown)
VH: QVQLVQSGAEVKKPGSSVKVSCKASGFSLNSYGIIWVRQAPGQGLEWMGVIWGNGNTYYAQKFQGRVTITADESTSTAYMELSSLRSEDTAVYYCARWRGYKDYPFDYWGQGTLVTVSS
VL: EIVLTQSPATLSLSPGERATLSCKASQNIYKYLDWYQQKPGQAPRLLIYNTNSLATGIPARFSGSGSGRDFTLTISSLEPEDFAVYYCLQHNSGWTFGGGTKVEIKR

Biological target: T1, human PAR-2
Assay: cell-based or functional assay

**Q.** How did the “PAR-2 β-arrestin cell based assay IC50, 2 µM SLIGKV” value turn out when B1 was run?
**A.** 2.6 nM

**Q.** With B2 as the binder, how does the “PAR-2 β-arrestin cell based assay IC50, 2 µM SLIGKV” value read?
**A.** 2.1 nM

**Q.** Which “PAR-2 β-arrestin cell based assay IC50, 2 µM SLIGKV” value does the source give for B3 here?
**A.** 3.6 nM

**Q.** B4 was tested. Which “PAR-2 β-arrestin cell based assay IC50, 2 µM SLIGKV” value did it give?
**A.** 2.2 nM

**Q.** With B5 as the binder, how does the “PAR-2 β-arrestin cell based assay IC50, 2 µM SLIGKV” value read?
**A.** 1.6 nM

**Q.** For B6, which “PAR-2 β-arrestin cell based assay IC50, 2 µM SLIGKV” value is on record?
**A.** 2.5 nM

**Q.** With B7 as the binder, how does the “PAR-2 β-arrestin cell based assay IC50, 2 µM SLIGKV” value read?
**A.** 2.2 nM

**Q.** B8 was tested. Which “PAR-2 β-arrestin cell based assay IC50, 2 µM SLIGKV” value did it give?
**A.** 2 nM

**Q.** For B9, which “PAR-2 β-arrestin cell based assay IC50, 2 µM SLIGKV” value is on record?
**A.** 2 nM

**Q.** Which “PAR-2 β-arrestin cell based assay IC50, 2 µM SLIGKV” value does the source give for B10 here?
**A.** 3.1 nM

**Q.** B11 was tested. Which “PAR-2 β-arrestin cell based assay IC50, 2 µM SLIGKV” value did it give?
**A.** 1.47 nM

**Q.** How did the “PAR-2 β-arrestin cell based assay IC50, 2 µM SLIGKV” value turn out when B12 was run?
**A.** 2.3 nM

**Q.** B13 was tested. Which “PAR-2 β-arrestin cell based assay IC50, 2 µM SLIGKV” value did it give?
**A.** 3 nM

**Q.** How did the “PAR-2 β-arrestin cell based assay IC50, 2 µM SLIGKV” value turn out when B14 was run?
**A.** 2.6 nM

**Q.** Which “PAR-2 β-arrestin cell based assay IC50, 2 µM SLIGKV” value does the source give for B15 here?
**A.** 2.9 nM

**Q.** With B16 as the binder, how does the “PAR-2 β-arrestin cell based assay IC50, 2 µM SLIGKV” value read?
**A.** 1.2 nM

**Q.** How did the “PAR-2 β-arrestin cell based assay IC50, 2 µM SLIGKV” value turn out when B17 was run?
**A.** 2.4 nM

**Q.** Which “PAR-2 β-arrestin cell based assay IC50, 2 µM SLIGKV” value does the source give for B18 here?
**A.** 1.48 nM

**Q.** For B19, which “PAR-2 β-arrestin cell based assay IC50, 2 µM SLIGKV” value is on record?
**A.** 1.3 nM

**Q.** With B20 as the binder, how does the “PAR-2 β-arrestin cell based assay IC50, 2 µM SLIGKV” value read?
**A.** 1.4 nM
